# Reference: US20050119187A1 (BOARD OF SUPERVISORS OF LOUISIANA STATE UNIVERSITY AND …, published 2005)
# *1 amine or outer side, *2 acyl side, *3 side chain or, on linkers, in order; H or OH if unused. Where no end group is shown, it is not given here. [ ]: non-standard residue; d: D form. Dbzg = C-alpha,alpha-dibenzylglycine, O=C(C(Cc1ccccc1)(Cc1ccccc1)N[*:1])[*:2]; Dibg = C-alpha,alpha-diisobutylglycine, CC(C)CC(CC(C)C)(N[*:1])C(=O)[*:2]; Dpg = CCCC(N)(CCC)C(=O)O
# B1: AMY-2: (Lys)7-Dibg-Val-Dbzg-Phe-Dpg-NH2 (peptide)
# peptide: KKKKKKK[Dibg]V[Dbzg]F[Dpg]-NH2
# modifications: N-terminus assumed
# SMILES: CCCC(CCC)(NC(=O)[C@H](Cc1ccccc1)NC(=O)C(Cc1ccccc1)(Cc1ccccc1)NC(=O)[C@@H](NC(=O)C(CC(C)C)(CC(C)C)NC(=O)[C@H](CCCCN)NC(=O)[C@H](CCCCN)NC(=O)[C@H](CCCCN)NC(=O)[C@H](CCCCN)NC(=O)[C@H](CCCCN)NC(=O)[C@H](CCCCN)NC(=O)[C@@H](N)CCCCN)C(C)C)C(N)=O
# notes: Synthetic beta-strand mimic based on Abeta16-21 (KLVFFA), with the oligolysine stretch at the N-terminus
# Legend:
# [1] = biological target: amyloidogenic peptide Aβ10-35 (UniProt P05067); experiment: cell-based or functional assay
# Sequence of amyloidogenic peptide Aβ10-35 (P05067 681-706): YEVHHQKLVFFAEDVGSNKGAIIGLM
# [2] = biological target: the molecule itself; experiment: preliminary studies, self-aggregation (data not shown)
Molecule,inhibition of aggregation (amyloid fibril formation) [1] [µM],binding result [2]
AMY-1: Lys-Dibg-Val-Dbzg-Phe-Dpg-(Lys)6-NH2 (peptide),5,
B1,,binds
